These results are taken from patent US20240158457A1 (published 2024).

For orientation: IC50 means the point on the concentration scale where inhibition reaches its midpoint. The low end stands for greater potency, the high end for weaker potency. Usually EC50 stands for the concentration at which the effect is half-maximal. The low end stands for greater potency, the high end for weaker potency.

Read-outs that look alike come from different tables or passages of the source. Where no end group is shown, it is not given here.

Assay [1] deals with T1, IL-18Rα-Fc (CD218a protein, Fc tag; ECD 19-329; ACROBiosystems, Inc, Cat. No. IL1-H5259) (UniProt Q13478 19-329).
T1 chain: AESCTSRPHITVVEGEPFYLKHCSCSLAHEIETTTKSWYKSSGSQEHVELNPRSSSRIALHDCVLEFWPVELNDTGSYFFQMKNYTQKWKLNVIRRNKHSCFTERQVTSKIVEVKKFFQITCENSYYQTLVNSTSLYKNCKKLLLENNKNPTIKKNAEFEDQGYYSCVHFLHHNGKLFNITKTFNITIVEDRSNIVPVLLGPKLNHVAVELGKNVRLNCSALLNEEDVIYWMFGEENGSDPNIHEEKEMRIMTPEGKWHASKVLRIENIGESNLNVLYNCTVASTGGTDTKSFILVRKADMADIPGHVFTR
Description: competition ELISA. A general note: An ELISA detects its analyte on a solid surface through an enzyme-linked reagent.

Assay [2] addresses T1, IL-18Rα-Fc (CD218a protein, Fc tag; ECD …). Description: ELISA.
Assay [3] shares this target. Nature of the assay: ELISA.
The target is the same in assay [4]. Description: competition ELISA; tracer 7C06(bn1713)/NA-HRP 75 nM.

GGREDMECFWSPGQVWCIPSYLGG [10D09] yielded an IC50 in assay [1] of 11000 pM.

Take GGELCWRPFSFVDCEEGG-biotin (cysteine pairing not given here) [biotinylated alpha synthetic F1a Consensus Construct]: the concentration giving a half-maximal response (EC50) in assay [2] is 110 pM.

The molecule GGFFECFYSPGHEWCIPSGG-biotin (cysteine pairing not given here) [biotinylated 7C06] came in with an EC50 in assay [3] of 260 pM.

On to GGFFECFYSPGHEWCIPSGG [7C06], for which the IC50 in assay [4] came to 350000 pM.

On to GGICWVPFHYLDELMCTGG-biotin (cysteine pairing not given here) [biotinylated 4D07], for which, in assay [3], the EC50 came out at 160 pM.
